In US11231420 (APTALOGIC, INC.):

B1: Aptamer 6012 (ssDNA)
DNA: GCCTGTTGTGAGCCTCCTGTCGAACGTATTTCTTGCTTCCTTCCTTGCCGCGCACATTGCAGTATAAGTACCTGTCGTTGAGCGTTTATTCTTGTCTCCC
B2: Aptamer 6011 (ssDNA)
DNA: GCCTGTTGTGAGCCTCCTGTCGAACAACCACTCATATCTACTACATGACTTGCTCCATTCTGTTCTTTCTCTACGCATTGAGCGTTTATTCTTGTCTCCC
B3: Aptamer 6021 (ssDNA)
DNA: GCCTGTTGTGAGCCTCCTGTCGAAACTGTACTTCACTTTTACCTCCTCTTGCTCTTATCTGTACTATTGTCTCTCCGTTGAGCGTTTATTCTTGTCTCCC
B4: Aptamer 6022 (ssDNA)
DNA: GCCTGTTGTGAGCCTCCTGTCGAACCCTATCTTGTTCATGCTATTCTCAATATTTTCGGTTCACTTACCGTCTGCCTTTGAGCGTTTATTCTTGTCTCCC

How the values were obtained:
[1] = molecular target: T1, Human serum albumin (HSA) (Homo sapiens, UniProt P02768 P02768:25-609); assay: filter; HSA up to 6 uM; conditions: label: 5'-32P
[2] = molecular target: T2, Lcn2 (lipocalin 2, uterocalin) (UniProt P11672 P11672:21-200); assay: filter; text says Lcn2 not bound by the aptamers; conditions: tags: His-tag; label: 5'-32P
T2 sequence: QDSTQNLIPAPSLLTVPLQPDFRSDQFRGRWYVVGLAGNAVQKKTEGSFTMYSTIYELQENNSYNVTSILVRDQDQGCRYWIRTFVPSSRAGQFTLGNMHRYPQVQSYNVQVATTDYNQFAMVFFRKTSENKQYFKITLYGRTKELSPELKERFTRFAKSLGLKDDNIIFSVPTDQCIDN

[3] = molecular target: T3, EBOV sGP (soluble glycoprotein) (Zaire ebolavirus, UniProt P60170 P60170:33-324); assay: filter; PBS with 5 mM Mg, pH 7; conditions: tags: His-tag; chain copies: 2; label: 5'-32P
EBOV GP1,2 = EBOV GP1,2 (UniProt Q05320 Q05320:33-650); assay: filter; conditions: label: 5'-32P
[4] = molecular target: T4, SUDV sGP (soluble glycoprotein) (Sudan ebolavirus, UniProt Q7T9E0 Q7T9E0:33-324); assay: filter; no serum; conditions: chain copies: 2; label: 5'-32P
T4 sequence: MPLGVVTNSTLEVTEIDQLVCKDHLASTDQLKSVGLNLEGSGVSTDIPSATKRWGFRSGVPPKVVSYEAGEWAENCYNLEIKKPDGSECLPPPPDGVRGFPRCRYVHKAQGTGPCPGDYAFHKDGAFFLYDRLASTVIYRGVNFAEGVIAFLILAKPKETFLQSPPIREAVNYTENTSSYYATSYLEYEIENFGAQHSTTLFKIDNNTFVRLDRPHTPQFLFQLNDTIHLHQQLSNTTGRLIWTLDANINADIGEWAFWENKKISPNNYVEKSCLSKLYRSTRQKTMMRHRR

[5] = molecular target: T2, Lcn2 (lipocalin 2, uterocalin); assay: filter; no serum; conditions: tags: His-tag; label: 5'-32P
[6] = molecular target: T3, EBOV sGP (soluble glycoprotein); assay: filter; conditions: tags: His-tag; chain copies: 2; label: 5'-32P
[7] = molecular target: T1, Human serum albumin (HSA); assay: filter; HSA tested up to 6 uM; estimated; conditions: label: 5'-32P

T3 sequence (P60170 33-324, one chain of several): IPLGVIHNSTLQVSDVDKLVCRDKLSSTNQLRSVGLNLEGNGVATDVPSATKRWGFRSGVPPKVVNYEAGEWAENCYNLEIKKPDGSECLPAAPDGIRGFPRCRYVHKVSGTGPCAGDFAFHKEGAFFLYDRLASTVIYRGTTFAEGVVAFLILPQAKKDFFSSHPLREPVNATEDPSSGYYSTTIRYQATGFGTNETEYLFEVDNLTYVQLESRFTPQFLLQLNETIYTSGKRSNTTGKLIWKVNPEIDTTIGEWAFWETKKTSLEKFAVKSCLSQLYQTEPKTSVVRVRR
T1 sequence (P02768 25-609, one chain of several): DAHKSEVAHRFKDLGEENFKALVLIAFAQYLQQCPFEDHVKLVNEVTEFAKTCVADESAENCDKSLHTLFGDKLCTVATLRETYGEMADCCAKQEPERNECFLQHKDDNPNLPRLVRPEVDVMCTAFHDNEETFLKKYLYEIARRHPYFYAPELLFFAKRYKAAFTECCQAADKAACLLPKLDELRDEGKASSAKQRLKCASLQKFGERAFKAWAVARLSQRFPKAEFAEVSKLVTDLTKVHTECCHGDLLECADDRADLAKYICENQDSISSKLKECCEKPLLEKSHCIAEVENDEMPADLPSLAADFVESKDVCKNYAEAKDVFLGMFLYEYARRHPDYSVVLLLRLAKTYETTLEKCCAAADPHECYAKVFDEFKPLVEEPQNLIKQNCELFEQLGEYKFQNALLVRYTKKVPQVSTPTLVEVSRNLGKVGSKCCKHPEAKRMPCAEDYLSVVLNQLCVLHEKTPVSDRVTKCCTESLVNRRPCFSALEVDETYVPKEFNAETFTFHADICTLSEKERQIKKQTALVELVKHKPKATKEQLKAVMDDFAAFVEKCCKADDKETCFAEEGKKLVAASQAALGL
Sequence of EBOV GP1,2 (Q05320 33-650, one chain of several): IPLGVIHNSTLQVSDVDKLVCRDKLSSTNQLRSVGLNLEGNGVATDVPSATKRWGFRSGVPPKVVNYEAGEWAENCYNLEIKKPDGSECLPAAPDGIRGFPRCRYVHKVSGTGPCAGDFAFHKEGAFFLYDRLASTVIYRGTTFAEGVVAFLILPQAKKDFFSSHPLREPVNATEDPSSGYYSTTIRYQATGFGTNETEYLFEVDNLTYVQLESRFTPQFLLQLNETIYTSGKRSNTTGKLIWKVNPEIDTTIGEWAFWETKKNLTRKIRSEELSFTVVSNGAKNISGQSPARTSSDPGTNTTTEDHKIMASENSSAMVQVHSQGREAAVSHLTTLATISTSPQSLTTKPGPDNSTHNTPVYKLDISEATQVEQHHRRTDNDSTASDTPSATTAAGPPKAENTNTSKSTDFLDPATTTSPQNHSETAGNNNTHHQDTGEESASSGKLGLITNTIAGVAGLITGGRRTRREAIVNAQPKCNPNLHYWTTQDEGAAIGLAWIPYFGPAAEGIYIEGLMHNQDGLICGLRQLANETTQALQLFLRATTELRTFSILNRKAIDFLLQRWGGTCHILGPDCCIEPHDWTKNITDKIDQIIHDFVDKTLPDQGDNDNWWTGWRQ

Binder | binding result [1] | binding result [2] | Kd [3] [nM] | Kd (EBOV GP1,2) [nM] | Kd [4] [nM] | binding result [5] | Kd [6] [nM] | binding result (EBOV GP1,2) | Kd [7] [nM]
B1 | no binding | no binding | 90 | 22 | – | – | – | – | –
B2 | no binding | – | – | – | 240 | no binding | 30 | binds | –
B3 | no binding | – | 20 | – | – | – | – | – | –
B4 | – | – | 100 | – | – | – | – | – | ~100000
